Measured values published in patent publication US20190161525A1 (NATIONAL CHENG KUNG UNIVERSITY, published 2019).

Target: the molecule itself
Experiment: self-polymerization in PBS, reducing SDS-PAGE and Western blot

B1: Zfra1-31 (full-length zinc finger-like protein that regulates apoptosis, synthetic peptide) (peptide)
peptide: MSSRRSSSCKYCEQDFRAHTQKNAATPFLAN
notes: also called Zfra peptide; full-length Zfra
- binding result: binds
